“And” between values parts separate entries of the source, which are not always exact repeats. Equal values may be shown once.
Details: Saccharomyces cerevisiae (strain ATCC 204508 / S288c), 25 °C, GdnHCl, reversible: yes, whole UniProt chain shown
[1] = pH 7, Fluorescence, Tris-HCl 50 mM, NaCl 0.2 M, transition: 2
[2] = pH 7.5, Fluorescence, Tris-HCl 50 mM, NaCl 0.2 M, transition: 2
[3] = pH 7.5, Fluorescence, Tris-phosphate 50 mM, NaCl 0.2 M, transition: 2
[4] = pH 8, CD, Na2HPO4-KH2PO4 50 mM, NaCl 0.15 M, transition: 3
[5] = pH 8, Fluorescence, Na2HPO4-KH2PO4 50 mM, NaCl 0.15 M, transition: 2
[6] = pH 8, Fluorescence, Tris-HCl 50 mM, NaCl 0.2 M, transition: 2
[7] = pH 8, Fluorescence, Tris-HCl 50 mM, NaCl 0.2 M, transition: 3
[8] = pH 8.4, Fluorescence, Tris-HCl 50 mM, NaCl 0.2 M, transition: 2
[9] = pH 8.5, Fluorescence, Na2HPO4-KH2PO4 50 mM, NaCl 0.15 M, transition: 2

B1: Transcriptional regulator URE2 wild type, P23202 (protein)
chain: MMNNNGNQVSNLSNALRQVNIGNRNSNTTTDQSNINFEFSTGVNNNNNNNSSSNNNNVQNNNSGRNGSQNNDNENNIKNTLEQHRQQQQAFSDMSHVEYSRITKFFQEQPLEGYTLFSHRSAPNGFKVAIVLSELGFHYNTIFLDFNLGEHRAPEFVSVNPNARVPALIDHGMDNLSIWESGAILLHLVNKYYKETGNPLLWSDDLADQSQINAWLFFQTSGHAPMIGQALHFRYFHSQKIASAVERYTDEVRRVYGVVEMALAERREALVMELDTENAAAYSAGTTPMSQSRFFDYPVWLVGDKLTIADLAFVPWNNVVDRIGINIKIEFPEVYKWTKHMMRRPAVIKALRGE
denaturant m value [1]: 3.2 kcal/mol/M | denaturant midpoint (higher = more stable) [1]: 2.4 M | unfolding free energy [1]: 17 kcal/mol | unfolding free energy (pH 7, Fluorescence, Tris-HCl 50 mM, NaCl 0.2 M, transition: 3): 7.9 kcal/mol | denaturant m value [2]: 3.6 kcal/mol/M | denaturant midpoint (higher = more stable) [2]: 2.64 M | unfolding free energy [2]: 20 kcal/mol | unfolding free energy (pH 7.5, Fluorescence, Tris-HCl 50 mM, NaCl 0.2 M, transition: 3): 8.8 kcal/mol and 8.5 kcal/mol and 8.9 kcal/mol | denaturant m value [3]: 4.8 kcal/mol/M and 5.2 kcal/mol/M | denaturant midpoint (higher = more stable) [3]: 2.66 M and 2.53 M | unfolding free energy [3]: 21 kcal/mol and 22 kcal/mol | unfolding free energy (pH 7.5, Fluorescence, Tris-phosphate 50 mM, NaCl 0.2 M, transition: 3): 9 kcal/mol | denaturant midpoint (higher = more stable) [4]: 2.33 M and 3.54 M | unfolding free energy [4]: 7 kcal/mol | denaturant m value [5]: 4 kcal/mol/M | denaturant midpoint (higher = more stable) [5]: 2.48 M | unfolding free energy [5]: 19 kcal/mol | unfolding free energy (pH 8, Fluorescence, Na2HPO4-KH2PO4 50 mM, NaCl 0.15 M, transition: 3): 6.9 kcal/mol and 6.8 kcal/mol | denaturant m value [6]: 3 kcal/mol/M and 4.1 kcal/mol/M and 6 kcal/mol/M | denaturant midpoint (higher = more stable) [6]: 3 M and 2.84 M and 2.66 M | unfolding free energy [6]: 16 kcal/mol and 19 kcal/mol | denaturant m value [7]: 8 kcal/mol/M and 3 kcal/mol/M | denaturant midpoint (higher = more stable) [7]: 3.23 M and 2.67 M | unfolding free energy [7]: 8 kcal/mol | denaturant m value [8]: 5 kcal/mol/M and 5.5 kcal/mol/M and 6.8 kcal/mol/M | denaturant midpoint (higher = more stable) [8]: 3.06 M and 2.95 M and 2.93 M | unfolding free energy [8]: 23 kcal/mol and 24 kcal/mol | denaturant m value [9]: 5 kcal/mol/M | denaturant midpoint (higher = more stable) [9]: 2.57 M | unfolding free energy [9]: 22 kcal/mol | unfolding free energy (pH 8.5, Fluorescence, Na2HPO4-KH2PO4 50 mM, NaCl 0.15 M, transition: 3): 7.6 kcal/mol and 7.4 kcal/mol and 7.5 kcal/mol

Reference: FireProtDB (doi:10.1016/s0022-2836(03)00249-3)
